Where no end group is shown, it is not given here.

The stoichiometry N is the number of molecules, sites or subunits per partner or assembly.

Series [1] deals with cFos bZIP region (137-193) synthetic peptide, C-terminally biotin-tagged (human). Put plainly: Qdot blinking analysis of single molecules on DNA tightropes; Qdot 655 conjugates only; blinks counted in 50 kymographs of 60 s for each protein; dual Poisson model fitted to cJun and cFos together; HSABC buffer; monomer to dimer on DNA.
For series [2] the target is unchanged. Description: dual-colour single-molecule fluorescence imaging on DNA tightropes; biotinylated peptide conjugated to premixed equimolar streptavidin Qdot 605 and Qdot 655 (100 nM peptide, 200 nM Qdots, diluted 50-fold); bound to Lambda DNA tightropes; HSABC buffer (50 mM Tris pH 7.5, 150 mM KCl, 10 mM MgCl2); room temperature (20 C); dual-coloured spots counted among DNA-bound molecules; monomer to dimer on DNA.

Series [3] deals with the molecule itself. The description is as above.

The molecule “cFos bZIP region (137-193) synthetic peptide, C-terminally biotin-tagged” gave a percent dimer (fit of Qdot blinking) in series [1] of 45.8%. In series [2], this molecule showed a percent of DNA-bound entities that were dual-colored of 15%, a percent of DNA-bound molecules dimerized of 30% and a stoichiometry N of 2.

B1: cJun bZIP region (252-308) synthetic peptide, C-terminally biotin-tagged (peptide)
chain: RIKAERKRMRNRIAASKCRKRKLERIARLEEKVKTLKAQNYELASTANMLREQVAQLGAP-biotin
notes: bZIP region of cJun, residues 252-308 as stated; gly-ala-pro spacer before the C-terminal biotin; In the tightrope assays the peptide was conjugated through its biotin to streptavidin-coated Qdot 655 and/or Qdot 605; It holds the bZIP domain only; source: synthetic peptide (PeptideSynthetics)
Turning to B1, the “stoichiometry N” value in series [3] is 2.
